Residue numbers refer to the chain shown, from its start. In names and notes the source's numbering stands. Several values for one entry are separate records, joined by “and”; a condition that tells them apart may be missing. Identical values can stand only once.
Legend:
[1] = target: T1, human ROR1 on cells (MDA-MB-231, ROR2-, ROR1+; also 786-O, ROR2+, ROR1+) (human, UniProt Q01973 30-937); experiment: flow cytometry on MDA-MB-231 cells (ROR2-, ROR1+); biAb followed by Alexa Fluor 647-conjugated donkey anti-human F(ab')2 pAbs
T1 construct: whole, on cells

[2] = target: human ROR2 on cells (endogenous on T47D, 786-O and U266 cell lines); expressed on HEK 293 cells of the … (human, UniProt Q01974 34-943); experiment: cell-based or functional assay
[3] = target: T2, hROR2-Fc (human ROR2 Fc fusion protein) (human, UniProt Q01974 34-403, limits assumed); experiment: SPR, Biacore X100; hROR2-Fc captured, Fab injected; reference Fab 401
T2 construct: Given both as hROR2-Fc and as Fc-hROR2, so the order of the two parts is not certain; also called Fc-hROR2; not shown: human Fc part (captured by a mouse anti-human IgG CH2 / Fcγ mAb)

[4] = target: T2, hROR2-Fc (human ROR2 Fc fusion protein); experiment: SPR; reference the existing anti-ROR2 antibody (XBR2-401)
[5] = target: T2, hROR2-Fc (human ROR2 Fc fusion protein); experiment: SPR, Biacore X100; hROR2-Fc captured by anti-human Fc mAb on a CM5 chip, Fab injected
[6] = target: T2, hROR2-Fc (human ROR2 Fc fusion protein); experiment: SPR (Biacore X100), Fc-hROR2 captured on CM5 chip via mouse anti-human Fcγ mAb, Fab as analyte, 1:1 binding model
[7] = target: T1, human ROR1 on cells (MDA-MB-231, ROR2-, …); experiment: flow cytometry on MDA-MB-231 cells (ROR2-, ROR1+); Fab followed by PE-conjugated goat anti-human F(ab')2 pAbs
[8] = target: human CD3 on Jurkat-T Lucia cells (CD3+) (human, UniProt P07766 23-207; P04234 22-171; P09693 23-182); experiment: flow cytometry on Jurkat-T Lucia cells (CD3+); scFv-Fc followed by Alexa Fluor 647-conjugated donkey anti-human F(ab')2 pAbs
[9] = target: T1, human ROR1 on cells (MDA-MB-231, ROR2-, …); experiment: Retrogenix cell microarray post-screen, ROR1 expressed on HEK 293 cells

B1: 401×v9 ROR2×CD3 bispecific antibody (heterodimeric aglycosylated scFv-Fc) (bispecific antibody)
chain 1: DPMLTQTPSSTSTAVGDTVTIKCQASQSISSDLSWYQQKPGQRPKLLIYQASTLASGVPSRFKGSGYGTEYTLTISGVQREDAAIYYCLGGYADASYRTAFGGGTKLEIKGGGGSGGGGSGGGGSQSVKESEGGLFKPTDTLTLTCTVSGFSLSSYGVTWVRQAPGSGLEWIGYINTAGNTYYASWAKSRSTITRNTNENTVTLKMTSLTAADTATYFCARDWTSLNIWGPGTLVTVSSEPKSSDKTHTCPPCPAPELLGGPSVFLFPPKPKDTLMISRTPEVTCVVVDVSHEDPEVKFNWYVDGVEVHNAKTKPREEQYASTYRVVSVLTVLHQDWLNGKEYKCKVSNKALPAPIEKTISKAKGQPREPQVYTLPPCRDELTKNQVSLWCLVKGFYPSDIAVEWESNGQPENNYKTTPPVLDSDGSFFLYSKLTVDKSRWQQGNVFSCSVMHEALHNHYTQKSLSLSPGA
chain 2: EVQLVESGGGLVQPGGSLRLSCAASGYSFTGYTMNWVRQAPGKGLEWVALINPYKGVSTYNQKFKDRFTISVDKSKNTAYLQMNSLRAEDTAVYYCARSGYYGDSDWYFDVWGQGTLVTVSSGGGGSGGGGSGGGGSDIQMTQSPSSLSASVGDRVTITCRASQDIRNYLNWYQQKPGKAPKLLIYYTSRLESGVPSRFSGSGSGTDYTLTISSLQPEDFATYYCQQGNTLPWTFGQGTKVEIKEPKSSDKTHTCPPCPAPELLGGPSVFLFPPKPKDTLMISRTPEVTCVVVDVSHEDPEVKFNWYVDGVEVHNAKTKPREEQYASTYRVVSVLTVLHQDWLNGKEYKCKVSNKALPAPIEKTISKAKGQPREPQVCTLPPSRDELTKNQVSLSCAVKGFYPSDIAVEWESNGQPENNYKTTPPVLDSDGSFFLVSKLTVDKSRWQQGNVFSCSVMHEALHNHYTQKSLSLSPGA
[1]
  binding result: no binding
[2]
  specific lysis of 786-O cells by expanded primary T cells (E:T 10:1, 16 h), EC50: 0.19 µg/mL and 1.9 nM

B2: hX3.12.6×v9 ROR2×CD3 bispecific antibody (heterodimeric aglycosylated scFv-Fc) (bispecific antibody)
chain 1: DPMLTQSPSSLSASVGDRVTITCQASQSISSDLSWYQQKPGKAPKLLIYQASTLASGVPSRFKGSGYGTEYTLTISSLQPEDFATYYCLGGYADASYRTAFGGGTKLEIKGGGGSGGGGSGGGGSEVQLVESGGGLVQPGGSLRLSCAASGFTFSSYGVTWVRQAPGKGLEWVSYINTAGNTYYASWAKSRFTISRDNAKNSLYLQMNSLRAEDTAVYYCARDDRWSLNIWGQGTLVTVSSEPKSSDKTHTCPPCPAPELLGGPSVFLFPPKPKDTLMISRTPEVTCVVVDVSHEDPEVKFNWYVDGVEVHNAKTKPREEQYASTYRVVSVLTVLHQDWLNGKEYKCKVSNKALPAPIEKTISKAKGQPREPQVYTLPPCRDELTKNQVSLWCLVKGFYPSDIAVEWESNGQPENNYKTTPPVLDSDGSFFLYSKLTVDKSRWQQGNVFSCSVMHEALHNHYTQKSLSLSPGA
chain 2: B1 chain 2
notes: ROR2 scFv on the knob Fc, v9 anti-CD3 scFv on the hole Fc, both N297A; also called hX3.12.6×V9 bi-mAb
[1]
  binding result: no binding
[2]
  specific lysis of 786-O cells by expanded primary T cells (E:T 10:1, 16 h), EC50: 0.21 µg/mL and 2.1 nM

B3: hX3.12.5×v9 ROR2×CD3 bispecific antibody (heterodimeric aglycosylated scFv-Fc) (bispecific antibody)
chain 1: B2 chain 1 with V137I, F154V, A199S, S202T
chain 2: B1 chain 2
notes: ROR2 scFv on the knob Fc, v9 anti-CD3 scFv on the hole Fc, both N297A; also called hX3.12.5×V9 bi-mAb; hX3.12.5×CD3 bi-mAb
[1]
  binding result: no binding
[2]
  specific lysis of 786-O cells by expanded primary T cells (E:T 10:1, 16 h), EC50: 0.15 µg/mL and 1.5 nM

B4: XBR2-401-X3.12 Fab (affinity matured chimeric rabbit/human Fab) (Fab, V domains shown)
VH: QSVKESEGGLFKPTDTLTLTCTVSGFSLSSYGVTWVRQAPGSGLEWIGYINTAGNTYYASWAKSRSTITRNTNENTVTLKMTSLTAADTATYFCARDDRWSLNIWGPGTLVTVSS
VL: DPMLTQTPSSTSTAVGDTVTIKCQASQSISSDLSWYQQKPGQRPKLLIYQASTLASGVPSRFKGSGYGTEYTLTISGVQREDAAIYYCLGGYADASYRTAFGGGTKLEIK
notes: Chimeric rabbit/human Fab
[3]
  fold improvement of affinity from 401: ≥ 5 fold
[4]
  fold increase in binding affinity: 10 fold
[5]
  Kd: 0.7 nM
[6]
  Kd: 0.72 nM
  koff: 3.3e-05 s⁻¹
  kon: 45000 M⁻¹ s⁻¹
[7]
  binding result: no binding

B5: hX3.12.6 scFv-Fc (IgG1-like format, two identical scFv fused to human IgG1 Fc) (Fc fusion)
chain: DPMLTQSPSSLSASVGDRVTITCQASQSISSDLSWYQQKPGKAPKLLIYQASTLASGVPSRFKGSGYGTEYTLTISSLQPEDFATYYCLGGYADASYRTAFGGGTKLEIKGGGGSGGGGSGGGGSEVQLVESGGGLVQPGGSLRLSCAASGFTFSSYGVTWVRQAPGKGLEWVSYINTAGNTYYASWAKSRFTISRDNAKNSLYLQMNSLRAEDTAVYYCARDDRWSLNIWGQGTLVTVSS
notes: The text says only: (Gly4Ser)3 linker between VL and VH, fused to the human IgG1 Fc fragment; also called mAb hX3.12.6 in scFv-Fc format; Humanized scFv-Fc xh3.12.6; not shown: human IgG1 Fc fragment
[8]
  binding result: no binding
[9]
  binding result: no binding (tested: 20 µg/mL)

From patent US20230143003A1 (JULIUS MAXIMILIANS UNIVERSIT T W RZBURG, published 2023)
